Experimental data taken from patent US20140235553.

Experiments:
[1] = tested on: NTD-αA crystallin fusion protein
[2] = tested on: NTD-αB crystallin fusion protein

Substance: lysozyme
- CLA: suppression of chemically-induced aggregation of substrate protein [1]: These proteins also displayed CLA, as evidenced by suppressing the chemically-induced aggregation of substrate proteins such as lysozyme
- CLA: suppression of chemically-induced aggregation of substrate protein [2]: These proteins also displayed CLA, as evidenced by suppressing the chemically-induced aggregation of substrate proteins such as lysozyme
